Measurements taken from patent US20220315631A1, “STAPLED BETA-CATENIN LIGANDS” (Ohio State Innovation Foundation, priority 2019, published 2022).
Positions of bridges follow the written chain, without caps; N, C: chain ends. Non-standard residues stand in square brackets, D forms with d. No end group written: not given here. m‑xylene = 1,3-bis[(methylthio)methyl]benzene scaffold from m-xylene dibromide; miniPEG = polyethylene glycol moiety (linker unit); 1Nal = N[C@@H](Cc1cccc2ccccc12)C(=O)O; 2Nal = N[C@@H](Cc1ccc2ccccc2c1)C(=O)O; Bta = N[C@@H](Cc1csc2ccccc12)C(=O)O; Tle = CC(C)(C)[C@H](N)C(=O)O; Dap = NC[C@H](N)C(=O)O; AEEA = NCCOCCOCC(=O)O; βAla = NCCC(=O)O

T1: GST-β-catenin (UniProt P35222 133-665)
T1 construct: range 133-665; GST fusion purified on glutathione-agarose and used in the FP assays; also called GST-β-catenin(133-665); pGEX-β-catenin(133-665); not shown: glutathione S-transferase (GST) tag encoded by the pGEX plasmid
T1 sequence (looked up): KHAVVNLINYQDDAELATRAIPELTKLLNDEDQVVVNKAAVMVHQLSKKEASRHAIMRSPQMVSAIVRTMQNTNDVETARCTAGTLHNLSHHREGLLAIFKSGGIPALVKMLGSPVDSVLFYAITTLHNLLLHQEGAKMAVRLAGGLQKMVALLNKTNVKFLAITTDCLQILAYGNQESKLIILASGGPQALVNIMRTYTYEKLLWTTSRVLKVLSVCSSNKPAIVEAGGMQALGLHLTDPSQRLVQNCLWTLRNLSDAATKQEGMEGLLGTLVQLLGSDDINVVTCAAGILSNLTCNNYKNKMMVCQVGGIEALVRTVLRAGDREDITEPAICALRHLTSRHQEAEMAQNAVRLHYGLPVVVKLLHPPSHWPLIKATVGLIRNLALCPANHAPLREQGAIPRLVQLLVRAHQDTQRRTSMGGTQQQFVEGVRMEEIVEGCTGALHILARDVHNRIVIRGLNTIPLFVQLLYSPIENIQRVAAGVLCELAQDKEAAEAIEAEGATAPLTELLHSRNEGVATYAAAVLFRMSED

B1: Peptide 28 (peptide)
peptide: Ac-YPEDILDKHLQRV[Tle]L[miniPEG][miniPEG][Dap]-NH2
modifications: lactam 4-8
notes: also called Ac-YPEDILDKHLQRVZL-(miniPEG)2-Dap-NH2
B2: Peptide 14 (peptide)
peptide: XXRXRXQGGYPEDILDKHLQRXXL
modifications: not fully specified; N-terminal CPP9-(miniPEG)2; Asp-Lys staple; Z = tert-leucine; 3-Bta = 3-benzothienyl-l-alanine; C-terminal amide
notes: also called CPP9-(miniPEG)2-GGYPEDILDKHLQRZ(3-Bta)L-NH2
B3: Peptide 15 (peptide)
peptide: XXRXRXQGGYPEDILDKHLQRXXL
modifications: not fully specified; N-terminal CPP9-(miniPEG)2; Asp-Lys staple; Z = tert-leucine; 2-Nal = 2-napthylalanine; C-terminal amide
notes: also called CPP9-(miniPEG)2-GGYPEDILDKHLQRZ(2-Nal)L-NH2
B4: Peptide 12 (peptide)
peptide: Ac-GGYPEDILDKHLQR[Tle][1Nal]L-NH2
modifications: lactam 6-10
notes: also called Ac-GGYPEDILDKHLQRZ(1-Nal)L-NH2
B5: Peptide 18 (peptide)
peptide: Ac-GGYPEDILDKHLQR[Tle][Bta]L[AEEA][AEEA][Dap][dF][2Nal]R[dR]R[dR]Q
modifications: lactam 6-10; bridge (positions not given here); not fully specified (bridges); numbers in words are those of the source; also: cCPP9 ring hung on Dap18 side chain via Gln25 side chain, no backbone bond Dap18-X19
notes: also called Ac-GGYPEDILDKHLQRZ(3-Bta)L-(miniPEG)2-Dap(CPP9)
B6: Peptide 11 (peptide)
peptide: Ac-GGYPEDILDKHLQR[Tle][Bta]L-NH2
modifications: lactam 6-10
notes: also called Ac-GGYPEDILDKHLQRZ(3-Bta)L-NH2
B7: Peptide 13 (peptide)
peptide: Ac-GGYPEDILDKHLQR[Tle][2Nal]L-NH2
modifications: lactam 6-10
notes: also called Ac-GGYPEDILDKHLQRZ(2-Nal)L-NH2
B8: Peptide 16 (peptide)
peptide: Ac-GG[Bta]PEDILDKHLQR[Tle][Bta]L-NH2
modifications: lactam 6-10
SMILES: CC[C@H](C)[C@@H]1NC(=O)[C@@H](NC(=O)[C@H](CCC(=O)O)NC(=O)[C@@H]2CCCN2C(=O)[C@H](Cc2csc3ccccc23)NC(=O)CNC(=O)CNC(C)=O)CC(=O)NCCCC[C@@H](C(=O)N[C@@H](Cc2c[nH]cn2)C(=O)N[C@@H](CC(C)C)C(=O)N[C@@H](CCC(N)=O)C(=O)N[C@@H](CCCNC(=N)N)C(=O)N[C@H](C(=O)N[C@@H](Cc2csc3ccccc23)C(=O)N[C@@H](CC(C)C)C(N)=O)C(C)(C)C)NC(=O)[C@H](CC(=O)O)NC(=O)[C@H](CC(C)C)NC1=O
notes: also called Ac-GG(3-Bta)PEDILDKHLQRZ(3-Bta)L-NH2

Target: T1, GST-β-catenin
Assay: Table 7, binding to β-catenin; FP competition as for peptides 2-5 presumed

**Q.** Which IC50 does the source give for Ac-YPEDILDKHLQSV[Bta]T[miniPEG][miniPEG][Dap]-NH2 (lactam 4-8) [Peptide 19] here?
**A.** The IC50 was 382 nM.

**Q.** For Ac-YPEDILDKHLQEV[Bta]T[miniPEG][miniPEG][Dap]-NH2 (lactam 4-8) [Peptide 20], which IC50 is on record?
**A.** Its IC50 is 1800 nM.

**Q.** How did the IC50 turn out when Ac-YPEDILDKHLQQV[Bta]T[miniPEG][miniPEG][Dap]-NH2 (lactam 4-8) [Peptide 21] was run?
**A.** The IC50 was 328 nM.

**Q.** With B1 as the binder, how does the IC50 read?
**A.** Its IC50 is 306 nM.

**Q.** Which IC50 does the source give for B2 here?
**A.** Its IC50 is 63.5 nM.

**Q.** Which IC50 does the source give for Ac-GGYPEDILDKHLQCVILC[βAla]-NH2 (lactam 6-10; linker 14-18 via m‑xylene, Double stapled peptide) [Peptide 8] here?
**A.** Its IC50 is 525000 nM.

**Q.** For Ac-GGYPEDILDKHLQRVIL-NH2 (lactam (positions not given here); not fully specified) [Peptide 6], which IC50 is on record?
**A.** Its IC50 is 245 nM.

**Q.** B3 was tested. Which IC50 did it give?
**A.** Its IC50 is 79.4 nM.

**Q.** For B4, which IC50 is on record?
**A.** The IC50 was 175 nM.

**Q.** With Ac-GGYPEDILDKHLQR[Tle]WL-NH2 (lactam 6-10, also called Ac-GGYPEDILDKHLQRZWL-NH2) [Peptide 10] as the binder, how does the IC50 read?
**A.** The IC50 was 71 nM.

**Q.** Ac-YPEDILDKHLQSV[Bta][dS][miniPEG][miniPEG][Dap]-NH2 (lactam 4-8) [Peptide 23] was tested. Which IC50 did it give?
**A.** The IC50 was 565 nM.

**Q.** With B5 as the binder, how does the IC50 read?
**A.** Its IC50 is 104 nM.

**Q.** Which IC50 does the source give for YPEDILDKHLQRXIL (N-terminal acetyl; Asp-Lys staple; Hvl = β-hydroxyvaline; C-terminal amide) [Peptide 37] here?
**A.** Its IC50 is 154 nM.

**Q.** B6 was tested. Which IC50 did it give?
**A.** Its IC50 is 65 nM.

**Q.** How did the IC50 turn out when B7 was run?
**A.** The IC50 was 86 nM.

**Q.** For Ac-YPEDILDKHLQ[dE]V[Bta]T[miniPEG][miniPEG][Dap]-NH2 (lactam 4-8) [Peptide 22], which IC50 is on record?
**A.** The IC50 was 3500 nM.

**Q.** With B8 as the binder, how does the IC50 read?
**A.** Its IC50 is 97.9 nM.
